Test results: patent US20220017601A1 (JIANGSU HENGRUI MEDICINE, published 2022)

Columns and labels:
[1] = molecular target: human PD-L1 on CHO/PD-L1 cells (CS187108, Promega) (human, UniProt Q9NZQ7 19-290); test: cell-based or functional assay
human TGF-β1 [2] = molecular target: T1, human TGF-β1 (human, UniProt P01137 279-390); test: cell-based or functional assay
human TGF-β1 [3] = molecular target: T1, human TGF-β1; test: ELISA, plate coated with human TGF-β1, anti-human Fc-HRP, OD 450 nm
Description: a. […] Washing 3 times with 250 μl of 1×PBST, 250 μl of 5% milk PBS was added for blocking at 37° C. for 2 hours. c. […] Washing 3 times with 250 μl 1×PBST. e. 100 μl of Anti-human Fc antibody-HRP (1:4000) was added to each well and incubated for 40 minutes at 37° C. f. 100 μl of TMB was added into each well, incubated for 10 minutes at room temperature, and the reaction was stopped by adding 100 μl of 1 M H₂SO₄. g. The absorbance at 450 nm was measured on a microplate reader, and the data was analyzed by Graphpad Prism 5.

T1 sequence (P01137 279-390 limits assumed): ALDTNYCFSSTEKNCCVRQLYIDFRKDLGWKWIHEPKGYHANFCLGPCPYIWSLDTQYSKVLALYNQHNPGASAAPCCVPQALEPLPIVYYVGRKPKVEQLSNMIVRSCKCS
Chain of human PD-L1 on CHO/PD-L1 cells (CS187108, Promega) (Q9NZQ7 19-290): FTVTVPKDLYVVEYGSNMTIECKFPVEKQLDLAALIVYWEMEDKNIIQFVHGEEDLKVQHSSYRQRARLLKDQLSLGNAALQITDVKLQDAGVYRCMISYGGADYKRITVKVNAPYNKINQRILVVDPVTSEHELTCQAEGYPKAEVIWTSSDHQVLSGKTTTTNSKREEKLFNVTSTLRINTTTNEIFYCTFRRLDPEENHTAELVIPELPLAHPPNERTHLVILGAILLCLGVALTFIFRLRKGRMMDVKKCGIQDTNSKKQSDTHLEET

B1: PD-L1 antibody (antibody, human IgG4 S228P, kappa, F234A L235A, V domains shown)
VH: QVQLVQSGAEVKKPGASVKVSCKASGYTFTSYWMHWVRQAPGQGLEWMGRIGPNSGFTSYNEKFKNRVTMTRDTSTSTVYMELSSLRSEDTAVYYCARGGSSYDYFDYWGQGTTVTVSS
VL: DIVLTQSPASLAVSPGQRATITCRASESVSIHGTHLMHWYQQKPGQPPKLLIYAASNLESGVPARFSGSGSGTDFTLTINPVEAEDTANYYCQQSFEDPLTFGQGTKLEIKR
notes: Human IgG4 with S228P, F234A, L235A and the C-terminal K mutated to A; also called Ab; PD-L1 antibody IgG4 (AA) (S228P)
EC50 (read off the curve), luminescence of the PD-1/PD-L1 blockade reporter assay [1]: ~0.3 nM
TGFβ-induced pSMAD3 reporter activity (luciferase, HepG2 cells), IC50 (human TGF-β1 [2]): > 500 nM
binding result (human TGF-β1 [3]): no binding (tested: 1e6 pM (Log(pM) 6))
